In article PMC5296763, “Structural basis for redox sensitivity in Corynebacterium glutamicum diaminopimelate epimerase: an enzyme involved in L-lysine biosynthesis” (Scientific Reports, 2017):

Key:
[1] = target: T1, CgDapF (Corynebacterium glutamicum, UniProt Q8NP73); assay: X-ray crystal structure, […] A; type: binding; settings: crystallised with a 10 mM DAP isomer mixture (L,L, D,D, D,L), pH 9.0; only D,L-DAP density seen; active site
T1 construct: gene dapF

[2] = substrate: N[C@@H](CCC[C@H](N)C(=O)O)C(=O)O; assay: purified protein; type: biochemical, Corynebacterium glutamicum; settings: 0.1 M potassium phosphate, pH 8.0, room temperature, 3.45 uM enzyme, substrate named in the assay method
[3] = target: the molecule itself; assay: SEC; size-exclusion chromatography under both the oxidized and the reduced conditions; data not shown

**Q.** With `N[C@H](CCC[C@H](N)C(=O)O)C(=O)O` [D,L-DAP] as the molecule, how does the “X-ray crystal structure, 2.6 A” value [1] read?
**A.** we determined the crystal structure of the protein in complex with the D,L-DAP product

B1: CgDapF (Corynebacterium glutamicum ATCC 13032) (protein)
chain: MNLTIPFAKGHATENDFIIIPDEDARLDLTPEMVVTLCDRRAGIGADGILRVVKAADVEGSTVDPSLWFMDYRNADGSLAEMCGNGVRLFAHWLYSRGLVDNTSFDIGTRAGVRHVDILQADQHSAQVRVDMGIPDVTGLSTCDINGQVFAGLGVDMGNPHLACVVPGLSASALADMELRAPTFDQEFFPHGVNVEIVTELEDDAVSMRVWERGVGETRSCGTGTVAAACAALADAGLGEGTVKVCVPGGEVEVQIFDDGSTLTGPSAIIALGEVQI
**Q.** How did the Km [2] turn out when B1 was run?
**A.** 1.86 mM

**Q.** What about the kcat [2] of the same molecule?
**A.** 58 s⁻¹

B2: Diaminopimelate epimerase (DapF) from Corynebacterium glutamicum (enzyme, UniProt Q8NP73 1-277, looked up)
chain: MNLTIPFAKGHATENDFIIIPDEDARLDLTPEMVVTLCDRRAGIGADGILRVVKAADVEGSTVDPSLWFMDYRNADGSLAEMCGNGVRLFAHWLYSRGLVDNTSFDIGTRAGVRHVDILQADQHSAQVRVDMGIPDVTGLSTCDINGQVFAGLGVDMGNPHLACVVPGLSASALADMELRAPTFDQEFFPHGVNVEIVTELEDDAVSMRVWERGVGETRSCGTGTVAAACAALADAGLGEGTVKVCVPGGEVEVQIFDDGSTLTGPSAIIALGEVQI
modifications: selenomethionine-substituted (SeMet derivative) in the crystals of the oxidized and reduced forms (5H2G, 5H2Y)
notes: Diaminopimelate epimerase (DapF, EC 5.1.1.7) of Corynebacterium glutamicum strain ATCC 13032, gene amplified from genomic DNA and cloned in pET30a; also called CgDapF; DAP epimerase; source: E. coli B834(DE3), purified (Ni-NTA, size-exclusion chromatography on Superdex 200); not shown: His tag (from the Ni-NTA purification)
**Q.** Which “stoichiometry N” value [3] does the source give for B2 here?
**A.** 2
